{"source": "paper PMC3344845", "about": "(2012)", "biological_target": "chicken avidin (Gallus gallus (Chicken), UniProt P02701)", "sequence (P02701 25-152)": "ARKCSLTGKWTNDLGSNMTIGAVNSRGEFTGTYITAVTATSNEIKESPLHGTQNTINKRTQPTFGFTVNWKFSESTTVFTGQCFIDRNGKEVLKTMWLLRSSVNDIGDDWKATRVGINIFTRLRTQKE", "experiment": "ITC"}
{"binder": "SEKLSNTK (protein)", "note": "[Brad-tag (synthetic peptide SEKLSNTK)]", "values": [{"measurement": "binding result", "value": "no binding"}]}
